Laboratory results from patent US20220054606A1, “ASPARAGINASE-INDUCED GLUTAMINE DEPLETION COMBINED WITH BCL-2 INHIBITION FOR TREATMENT OF HEMATOLOGIC AND SOLID CANCERS” (UNIVERSITY OF MARYLAND, BALTIMORE, priority 2018, published 2022).

Experiments:
[1] = tested on: MOLM-14 cells; test: Analysis of m7GTP-Sepharose-bound proteins (cap-binding complex); format: cell-based, human; conditions: m7GTP enrichment
Description: The affinity purification of proteins associated with the m^7GTP Sepharose (Jena Biosciences, Germany) was performed similarly to that described earlier. Cell lysates were prepared after 24 h of treatment and incubated with m^7GTP-sepharose for 2 h in cap-binding buffer (40 mM 4-(2-hydroxyethyl)-1-piperazineethanesulfonic acid [HEPES], pH 7.6; 120 mM NaCl; 1 mM EDTA; 0.3% 3-[(3-cholamidopropyl)dimethylammonio]-1-propanesulfonate. [CHAPS]). The beads were washed at room temperature three times in cap-binding buffer and boiled with 2× loading dye followed by separation on 4-12% SDS-PAGE and probed for specific antibodies.

[2] = tested on: human AML cell lines (HL-60, K562, MOLM-14, MonoMac-6, MV4-11, THP-1, U937); test: IC50 proliferation assay (WST-1); format: cell-based; conditions: MOLM-14 and MonoMac6, 72 h
Description: Cell lines and primary cells were seeded into 96-well plates the afternoon prior to treatment. Approximately 18 h later, Ven and Peg-C were serially diluted in vehicle or growth medium and added to cells. Plates were incubated for 72 h for cell lines and 48 h for primary cells prior to addition of water-soluble tetrazolium (WST-1) (Clontech, Mountain View, Calif.). Plates were read after 4 additional hours of incubation at 37° C. using a BioTek Synergy HT plate reader (BioTek, Winooski, Vt.). Data was analyzed and graphed using GraphPad Prism Software (Graphpad, La Jolla, Calif.).

B1: Pegcrisantaspase (protein, UniProt P06608 22-348, looked up)
L-asparaginase: ADKLPNIVILATGGTIAGSAATGTQTTGYKAGALGVDTLINAVPEVKKLANVKGEQFSNMASENMTGDVVLKLSQRVNELLARDDVDGVVITHGTDTVEESAYFLHLTVKSDKPVVFVAAMRPATAISADGPMNLLEAVRVAGDKQSRGRGVMVVLNDRIGSARYITKTNASTLDTFKANEEGYLGVIIGNRIYYQNRIDKLHTTRSVFDVRGLTSLPKVDILYGYQDDPEYLYDAAIQHGVKGIVYAGMGAGSVSVRGIAGMRKAMEKGVVVIRSTRTGNGIVPPDEELPGLVSDSLNPAHARILLMLALTRTSDPKVIQEYFHTY
modifications: PEG conjugate
notes: long acting crisantaspase, a recombinant pegylated Erwinia asparaginase
[1]
  4EBP1 recruitment on cap complexes (rank order): Ven-PegC>Ven>PegC
[2]
  IC10 of PegC: 0.001 IU/mL
